In patent US20260166166A1 (CURON BIOPHARMACEUTICAL SHANGHAI, published 2026):
Changes are numbered by the printed parent chain.

B1: hz26A12C1H4L3 (antibody, human IgG1, kappa, V domains shown)
VH: QVQLVQSGAEVKKPGSSVKVSCKASGYTFTNYWIQWVRQAPGQGLEWIGYINPSTYYSDYNQKFQGRVTLTADKSTSTAYMELSSLRSEDTAVYYCARRQFGLPLFDYWGQGTTVTVSS
VL: DIQMTQSPSSLSASVGDRVTITCRASQDVGTAVAWYQQKPGKVPKLLIYWASTLHSGVPSRFSGSGSGTDFTLTISSLQPEDVATYFCQQYSNYPLTFGGGTKVEIKR
notes: also called humanized anti-L1CAM antibody
B2: hz46F1D5H4L3 (antibody, human IgG1, kappa, V domains shown)
VH: B1 VH with N31R, I48M, Y56G, S58T, L70I, Q100H, F101L
VL: B1 VL with L11V, V43A, T53S, V83F
notes: as for B1
B3: hz49E10H1H5L6 (antibody, human IgG1, kappa, V domains shown)
VH: DVQLQESGPGLVKPSQTLSLTCTVSGGSISSDYAWNWIRQPPGKGLEWMGYITYSGTTTYNPSLKSRITISRDTSKNQFSLKLSSVTAADTAVYYCARDHYGNYAYFDYWGQGTTVTVSS
VL: DIQMTQSPSSLSASVGDRVTITCRASSSVSFMHWYQQKPGKAPKPWIYASSNLVSGVPSRFSGSGSGTDFTLTISSLQPEDFATYYCQQWSSNPSTFGGGTKVEIKR
notes: as for B1
B4: hz103E9B3H5L5 (antibody, human IgG1, kappa, V domains shown)
VH: EVQLVQSGAEVKKPGASVKVSCKASGYTFTSYTMHWVRQAPGQGLEWMGDINPNYGGTSYNEKFKDRVTMTTDTSTSTAYMELRSLRSDDTAVYYCAREGATGTWYFDVWGQGTTVTVSS
VL: B3 VL with R24S, H33F, W46L, A49L, S50T, V54A, S91R, S95P
notes: as for B1
B5: hz49E10H1H5L7 (antibody, human IgG1, kappa, V domains shown)
VH: B3 VH
VL: B3 VL with D1Q, F70Y
notes: as for B1
B6: hz103E9B3H6L5 (antibody, human IgG1, kappa, V domains shown)
VH: B4 VH with V68A
VL: B3 VL with R24S, H33F, W46L, A49L, S50T, V54A, S91R, S95P
notes: as for B1

What follows are binders tested against T1, L1 cell adhesion molecule (L1CAM) on the surface of HeLa cells (human, UniProt P32004 20-1257) (assay: flow cytometry on HeLa cells, MFI dose-response).
T1 construct: whole, on cells; Endogenous L1CAM of HeLa cells ("HeLa cells that highly express human L1CAM"); also called CD171; human L1CAM
Experimental: Humanized anti-L1CAM antibodies (Human IgG1-Kappa) are diluted in complete medium, in a four-fold serial dilution, with 7 concentration gradient points.
HeLa cells are cultured in DMEM complete medium (Corning, 10-013-CVR) containing 10% FBS (Gibco, 10099-141) and 100 U/mL penicillin-streptomycin mixture (Thermofisher, 15140122). When the cell coverage in the culture container reaches 80-90%, TrypLE (Thermofisher, 12604-013) is used to digest the HeLa cells from the culture container, and they are seeded in a 96-well plate (AXYGEN, P-96-450V-C) at a density of 2.2×10⁶ cells/ml, with 100,000 cells (45 μL complete medium) per well. Then, 5 μL of the antibody dilution is added to each well, mixed gently, and the 96-well plate is incubated at 4° C. for 1 hour. Then, 150 μL of PBS (Corning, 21-040-CVC) containing 2% FBS is added to each well, centrifuged at 1400 rpm for 4 minutes, the supernatant is removed, and washed once again. Then, 50 μL of Alexa Fluor 647-labeled goat anti-human fluorescent secondary antibody (Jacksonimmuno, 109-605-088) diluted at 1:800 is added to each well, and the 96-well plate is incubated at 4° C. for 0.5 hours. The cells are washed twice with PBS solution containing 2% FBS, then resuspended in 120 μL of PBS, and the fluorescent signal on the cell surface is detected using a flow cytometer (BD FACS Celesta), obtaining and the median fluorescence intensity (MFI). A dose-response curve is generated, and the half-maximal effective concentration (EC50) is calculated using non-linear regression with GraphPad software.

T1 sequence (P32004 20-1257): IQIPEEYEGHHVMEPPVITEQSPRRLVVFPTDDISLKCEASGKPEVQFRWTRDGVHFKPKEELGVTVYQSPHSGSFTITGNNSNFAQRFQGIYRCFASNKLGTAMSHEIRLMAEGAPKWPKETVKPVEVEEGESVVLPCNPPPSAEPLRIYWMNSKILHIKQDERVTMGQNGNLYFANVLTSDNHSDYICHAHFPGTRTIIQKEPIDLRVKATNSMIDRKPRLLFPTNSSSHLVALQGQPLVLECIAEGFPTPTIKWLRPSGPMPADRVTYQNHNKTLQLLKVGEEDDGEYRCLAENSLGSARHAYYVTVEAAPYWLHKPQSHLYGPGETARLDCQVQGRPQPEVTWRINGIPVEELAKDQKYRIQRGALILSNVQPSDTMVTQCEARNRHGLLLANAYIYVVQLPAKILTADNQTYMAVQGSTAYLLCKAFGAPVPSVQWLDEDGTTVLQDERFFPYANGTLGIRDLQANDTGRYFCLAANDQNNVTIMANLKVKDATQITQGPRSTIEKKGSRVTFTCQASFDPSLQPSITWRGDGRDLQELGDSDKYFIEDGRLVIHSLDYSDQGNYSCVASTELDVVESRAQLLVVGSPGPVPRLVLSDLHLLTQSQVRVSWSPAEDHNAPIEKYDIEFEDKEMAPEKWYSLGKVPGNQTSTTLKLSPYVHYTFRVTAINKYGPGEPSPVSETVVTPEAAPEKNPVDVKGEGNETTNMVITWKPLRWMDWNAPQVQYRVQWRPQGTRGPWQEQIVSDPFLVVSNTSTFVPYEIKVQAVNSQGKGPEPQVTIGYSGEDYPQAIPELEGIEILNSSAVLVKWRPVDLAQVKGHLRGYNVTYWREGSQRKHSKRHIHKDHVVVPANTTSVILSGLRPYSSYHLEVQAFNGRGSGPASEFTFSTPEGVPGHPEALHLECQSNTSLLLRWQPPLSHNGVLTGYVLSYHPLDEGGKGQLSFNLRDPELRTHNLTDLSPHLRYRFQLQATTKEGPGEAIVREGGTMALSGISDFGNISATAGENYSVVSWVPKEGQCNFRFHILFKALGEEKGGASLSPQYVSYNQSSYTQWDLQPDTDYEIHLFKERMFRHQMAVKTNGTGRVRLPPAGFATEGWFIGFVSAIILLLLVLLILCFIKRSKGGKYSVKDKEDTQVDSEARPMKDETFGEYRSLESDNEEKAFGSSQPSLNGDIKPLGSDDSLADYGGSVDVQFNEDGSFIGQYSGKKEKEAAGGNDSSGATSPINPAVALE

| EC50 [nM] | Binder |
| --- | --- |
| 0.738 | B1 |
| 1.27 | B2 |
| 0.404 | B3 |
| 1.68 | B4 |
| 0.377 | B5 |
| 1.48 | B6 |
